Experimental data: paper PMC11211324 (2024)

Target: KRAS-LgBiT (UniProt P01116 1-189)
Assay: NanoBiT in 293T cells

KRAS-LgBiT, sequence (P01116 whole entry): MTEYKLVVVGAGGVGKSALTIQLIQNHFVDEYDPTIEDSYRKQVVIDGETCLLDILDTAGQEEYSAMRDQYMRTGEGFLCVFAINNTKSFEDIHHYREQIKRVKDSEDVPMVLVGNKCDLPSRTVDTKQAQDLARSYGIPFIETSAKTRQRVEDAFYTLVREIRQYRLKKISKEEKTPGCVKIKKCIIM

B1: TKD (nanobody)-SmBiT (VHH)
VHH: DVQLQESGGGLVQAGGSLRLSCVASGRTFSTYPTGWFRQAPGKEREFVARINLSGGITNYADSVKGRFTISRDNAKNTVYLQMNSLKPEDTAVYYCGGGSTTWAGGIPTNFDYWGQGTQVTVSS
With B1 the Kd was 41.3 nM.
